# Reference: paper PMC3218035, “Nuclear Exportin Receptor CAS Regulates the NPI-1–Mediated Nuclear Import of HIV-1 Vpr” (PLoS ONE, 2011)
# T1: Qip1 392–537 C-terminal peptide mutant, GST cleaved (human, UniProt O00629 392-521)
# T1 construct: also called Qip1 394–521 (methods); source: E. coli BL21 CodonPlus (DE3)-RIL, purified (Glutathione Sepharose 4FF), GST cleaved with PreScission protease
# T1 sequence (looked up): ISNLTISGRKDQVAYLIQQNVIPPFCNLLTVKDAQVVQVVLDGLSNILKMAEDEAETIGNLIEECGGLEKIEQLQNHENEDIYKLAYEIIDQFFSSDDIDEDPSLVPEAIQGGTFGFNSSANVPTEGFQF
# T2: Qip1 (importin α3), full-length, GST cleaved (human, UniProt O00629 1-521)
# T2 construct: also called Qip1_(full); full-length Qip1; source: E. coli BL21 CodonPlus (DE3)-RIL, purified (Glutathione Sepharose 4FF), GST cleaved with PreScission protease
# T2 sequence (looked up): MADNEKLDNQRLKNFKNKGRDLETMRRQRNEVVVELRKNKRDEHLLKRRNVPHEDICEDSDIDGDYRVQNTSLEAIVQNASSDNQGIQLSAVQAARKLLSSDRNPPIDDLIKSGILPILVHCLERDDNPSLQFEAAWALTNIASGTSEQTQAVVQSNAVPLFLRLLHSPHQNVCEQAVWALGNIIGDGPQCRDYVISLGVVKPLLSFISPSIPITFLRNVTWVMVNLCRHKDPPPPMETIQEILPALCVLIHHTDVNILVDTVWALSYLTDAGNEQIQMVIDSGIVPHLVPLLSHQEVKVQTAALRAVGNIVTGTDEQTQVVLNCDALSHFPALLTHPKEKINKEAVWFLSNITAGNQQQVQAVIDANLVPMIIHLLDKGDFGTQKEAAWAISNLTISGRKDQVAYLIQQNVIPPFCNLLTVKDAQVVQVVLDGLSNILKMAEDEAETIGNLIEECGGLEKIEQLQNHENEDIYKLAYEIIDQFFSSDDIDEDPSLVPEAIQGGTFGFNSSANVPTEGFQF
# B1: GST-tagged-Vpr (natural protein)
# chain: MEQAPEDQGPQREPYNEWTLELLEELKSEAVRHFPRIWLHNLGQHIYETYGDTWAGVEAIIRILQQLLFIHFRIGCRHSRIGVTRQRRARNGASRS
# notes: also called GST-Vpr; source: E. coli, purified (GSH system, His-Trap column), dialyzed against transport buffer
# B2: cellular apoptosis susceptibility (CAS) protein, recombinant (natural protein, UniProt P55060 1-971, looked up)
# chain: MELSDANLQTLTEYLKKTLDPDPAIRRPAEKFLESVEGNQNYPLLLLTLLEKSQDNVIKVCASVTFKNYIKRNWRIVEDEPNKICEADRVAIKANIVHLMLSSPEQIQKQLSDAISIIGREDFPQKWPDLLTEMVNRFQSGDFHVINGVLRTAHSLFKRYRHEFKSNELWTEIKLVLDAFALPLTNLFKATIELCSTHANDASALRILFSSLILISKLFYSLNFQDLPEFFEDNMETWMNNFHTLLTLDNKLLQTDDEEEAGLLELLKSQICDNAALYAQKYDEEFQRYLPRFVTAIWNLLVTTGQEVKYDLLVSNAIQFLASVCERPHYKNLFEDQNTLTSICEKVIVPNMEFRAADEEAFEDNSEEYIRRDLEGSDIDTRRRAACDLVRGLCKFFEGPVTGIFSGYVNSMLQEYAKNPSVNWKHKDAAIYLVTSLASKAQTQKHGITQANELVNLTEFFVNHILPDLKSANVNEFPVLKADGIKYIMIFRNQVPKEHLLVSIPLLINHLQAESIVVHTYAAHALERLFTMRGPNNATLFTAAEIAPFVEILLTNLFKALTLPGSSENEYIMKAIMRSFSLLQEAIIPYIPTLITQLTQKLLAVSKNPSKPHFNHYMFEAICLSIRITCKANPAAVVNFEEALFLVFTEILQNDVQEFIPYVFQVMSLLLETHKNDIPSSYMALFPHLLQPVLWERTGNIPALVRLLQAFLERGSNTIASAAADKIPGLLGVFQKLIASKANDHQGFYLLNSIIEHMPPESVDQYRKQIFILLFQRLQNSKTTKFIKSFLVFINLYCIKYGALALQEIFDGIQPKMFGMVLEKIIIPEIQKVSGNVEKKICAVGITKLLTECPPMMDTEYTKLWTPLLQSLIGLFELPEDDTIPDEEHFIDIEDTPGYQTAFSQLAFAGKKEHDPVGQMVNNPKIHLAQSLHKLSTACPGRVPSMVSTSLNAEALQYLQGYLQAASVTLL
# notes: also called CSE1L; source: E. coli BL21 CodonPlus (DE3)-RIL, purified (Glutathione Sepharose 4FF)
# Experiments:
# [1] = target: T3, Rch1 404–529 C-terminal peptide mutant, GST cleaved (human, UniProt P52292 404-529); test: SPR; conditions: both partners purified
# T3 construct: also called Rch1 C-terminal peptide; source: E. coli BL21 CodonPlus (DE3)-RIL, purified (Glutathione Sepharose 4FF), GST cleaved with PreScission protease
# [2] = target: T4, NPI-1 404–541 C-terminal peptide mutant, GST cleaved (human, UniProt P52294 404-538); test: SPR; conditions: both partners purified
# T4 construct: also called NPI-1 406–538 (methods); source: E. coli BL21 CodonPlus (DE3)-RIL, purified (Glutathione Sepharose 4FF), GST cleaved with PreScission protease
# [3] = target: T5, NPI-1 (importin α5), full-length, GST cleaved (human, UniProt P52294 1-538); test: SPR; conditions: both partners purified
# T5 construct: also called NPI-1_(full); full-length NPI-1; source: E. coli BL21 CodonPlus (DE3)-RIL, purified (Glutathione Sepharose 4FF), GST cleaved with PreScission protease
# [4] = target: T1, Qip1 392–537 C-terminal peptide mutant, …; test: SPR; conditions: both partners purified
# [5] = target: T2, Qip1 (importin α3), full-length, GST …; test: SPR; conditions: both partners purified
# [6] = target: Rch1 (importin α1), full-length, GST cleaved (human), P52292; test: SPR; conditions: remark: other sources report otherwise
# [7] = target: T6, GST-tagged NPI-1 (importin α5), full-length (human, UniProt P52294 1-538); test: pull-down; conditions: both partners purified
# T6 construct: also called GST-NPI-1; SPR1; source: E. coli BL21 CodonPlus (DE3)-RIL, purified (Glutathione Sepharose 4FF)
# T6 sequence (P52294 whole entry): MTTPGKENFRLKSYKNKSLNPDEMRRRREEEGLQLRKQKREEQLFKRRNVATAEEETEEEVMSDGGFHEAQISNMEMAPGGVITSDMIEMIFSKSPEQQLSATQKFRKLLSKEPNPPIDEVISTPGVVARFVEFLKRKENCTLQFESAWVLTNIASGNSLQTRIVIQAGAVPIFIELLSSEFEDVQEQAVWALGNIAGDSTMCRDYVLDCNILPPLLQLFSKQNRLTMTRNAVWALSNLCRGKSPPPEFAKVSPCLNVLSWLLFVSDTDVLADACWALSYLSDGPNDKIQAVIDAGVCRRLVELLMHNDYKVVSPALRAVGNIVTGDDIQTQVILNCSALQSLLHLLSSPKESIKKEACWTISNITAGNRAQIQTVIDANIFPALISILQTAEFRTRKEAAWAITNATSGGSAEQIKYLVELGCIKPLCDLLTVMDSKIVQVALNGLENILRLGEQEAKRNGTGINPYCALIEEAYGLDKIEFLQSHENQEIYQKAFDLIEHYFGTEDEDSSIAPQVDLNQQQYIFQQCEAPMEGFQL
# T5 sequence (P52294 whole entry): as above
# T4 sequence (P52294 404-538, change not shown): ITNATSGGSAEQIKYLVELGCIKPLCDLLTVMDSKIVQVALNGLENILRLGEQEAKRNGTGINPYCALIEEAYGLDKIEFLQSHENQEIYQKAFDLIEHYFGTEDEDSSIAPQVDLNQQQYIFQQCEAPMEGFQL
Binder,Kd [1] [µM],Kd [2] [µM],Kd [3] [µM],Kd [4] [µM],Kd [5] [µM],Kd [6] [µM],"mRFP-Vpr bound to GST-NPI-1 with CAS and Q69LRanGTP, fold of the sample without CAS [7] [fold]"
B1,4.3,6.7,7.4,6.5,6.8,8.9,–
B2,–,–,–,–,–,–,0.2
